Results reported in patent US20250250357A1 (NANJING ZAIMING PHARMACEUTICAL, published 2025).

T1: human MSLN-R1-his protein (human, UniProt Q13421 296-390)
T1 construct: Region 1 of human mesothelin, made in HEK293E cells, His-tagged; also called human MSLN-R1 protein; hMSLN-R1-his; not shown: His tag
T1 chain: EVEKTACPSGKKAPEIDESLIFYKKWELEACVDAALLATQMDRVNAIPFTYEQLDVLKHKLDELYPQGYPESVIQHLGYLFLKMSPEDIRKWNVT


Key:
[1] = biological target: T1, human MSLN-R1-his protein; assay: ELISA on coated MSLN-R1; antibody 1 nM
Description: (§1) The plate was sealed with a plastic film and incubated at 4° C. overnight. The next day, the plate was washed twice with PBST, and a blocking buffer [PBS+2% (w/w) BSA] was added for blocking at room temperature for 2 h. The blocking buffer was discarded, and a chimeric antibody or negative control antibody serially diluted from 100 nM was added at 50 μL/well. After incubation at 37° C. for 2 h, the plate was washed 3 times with PBST. […] After incubation at 37° C. for 2 h, the plate was washed 5 times with PBST. A TMB substrate was added at 50 μL/well for incubation at room temperature for 5-10 min, and then a stop solution (1.0 N HCl) was added at 50 μL/well.

[2] = biological target: T2, human MSLN-R2-his protein (human, UniProt Q13421 391-486); assay: ELISA on coated MSLN-R2; antibody 1 nM
T2 construct: Region 2 of human mesothelin, made in HEK293E cells, His-tagged; also called human MSLN-R2 protein; hMSLN-R2-his; not shown: His tag
T2 sequence (Q13421 other isoform, or with tags, fused parts or gaps): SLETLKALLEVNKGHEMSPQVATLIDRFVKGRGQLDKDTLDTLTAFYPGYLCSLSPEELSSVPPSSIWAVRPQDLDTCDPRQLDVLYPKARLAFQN

[3] = biological target: T3, human MSLN-R3-his protein (human, UniProt Q13421 487-598); assay: ELISA on coated MSLN-R3; antibody 1 nM
T3 construct: Region 3 of human mesothelin, made in HEK293E cells, His-tagged; also called human MSLN-R3 protein; hMSLN-R3-his; not shown: His tag
T3 sequence (Q13421 495-606): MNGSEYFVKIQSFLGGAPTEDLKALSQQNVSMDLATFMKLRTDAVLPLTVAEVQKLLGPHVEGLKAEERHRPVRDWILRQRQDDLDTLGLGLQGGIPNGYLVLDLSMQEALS

[4] = biological target: T1, human MSLN-R1-his protein; assay: ELISA on coated MSLN-R1; antibody 10 nM
Description: as §1

[5] = biological target: T2, human MSLN-R2-his protein; assay: ELISA on coated MSLN-R2; antibody 10 nM
Description: as §1

[6] = biological target: T3, human MSLN-R3-his protein; assay: ELISA on coated MSLN-R3; antibody 10 nM
[7] = biological target: T1, human MSLN-R1-his protein; assay: ELISA on coated MSLN-R1; antibody 0.1 nM
Description: as §1

[8] = biological target: T1, human MSLN-R1-his protein; assay: ELISA on coated MSLN-R1; antibody 100 nM
[9] = biological target: T2, human MSLN-R2-his protein; assay: ELISA on coated MSLN-R2; antibody 0.1 nM
Description: as §1

[10] = biological target: T2, human MSLN-R2-his protein; assay: ELISA on coated MSLN-R2; antibody 100 nM
Description: as §1

[11] = biological target: T3, human MSLN-R3-his protein; assay: ELISA on coated MSLN-R3; antibody 0.1 nM
Description: as §1

[12] = biological target: T3, human MSLN-R3-his protein; assay: ELISA on coated MSLN-R3; antibody 100 nM
[13] = biological target: T1, human MSLN-R1-his protein; assay: ELISA on coated MSLN-R1; antibody 0.01 nM
Description: as §1

[14] = biological target: T2, human MSLN-R2-his protein; assay: ELISA on coated MSLN-R2; antibody 0.01 nM
Description: as §1

[15] = biological target: T3, human MSLN-R3-his protein; assay: ELISA on coated MSLN-R3; antibody 0.01 nM
Description: as §1

[16] = biological target: T1, human MSLN-R1-his protein; assay: ELISA on coated MSLN-R1; antibody 0.001 nM
Description: as §1

[17] = biological target: T2, human MSLN-R2-his protein; assay: ELISA on coated MSLN-R2; antibody 0.001 nM
Description: as §1

[18] = biological target: T3, human MSLN-R3-his protein; assay: ELISA on coated MSLN-R3; antibody 0.001 nM
Description: as §1

[19] = biological target: T1, human MSLN-R1-his protein; assay: ELISA on coated MSLN-R1; antibody 0.0001 nM
Description: as §1

[20] = biological target: T2, human MSLN-R2-his protein; assay: ELISA on coated MSLN-R2; antibody 0.0001 nM
[21] = biological target: T3, human MSLN-R3-his protein; assay: ELISA on coated MSLN-R3; antibody 0.0001 nM
Description: as §1

[22] = biological target: T1, human MSLN-R1-his protein; assay: ELISA on coated MSLN-R1; no antibody (blank)
Description: as §1

[23] = biological target: T2, human MSLN-R2-his protein; assay: ELISA on coated MSLN-R2; no antibody (blank)
Description: as §1

[24] = biological target: T3, human MSLN-R3-his protein; assay: ELISA on coated MSLN-R3; no antibody (blank)

OD450 [1] | OD450 [2] | OD450 [3] | OD450 [4] | OD450 [5] | OD450 [6] | OD450 [7] | OD450 [8] | OD450 [9] | OD450 [10] | OD450 [11] | OD450 [12] | OD450 [13] | OD450 [14] | OD450 [15] | OD450 [16] | OD450 [17] | OD450 [18] | OD450 [19] | OD450 [20] | Binder | also measured
0.54 OD450 | 0.04 OD450 | 0.04 OD450 | 1.55 OD450 | 0.05 OD450 | 0.05 OD450 | 0.1 OD450 | 2.07 OD450 | 0.04 OD450 | 0.05 OD450 | 0.04 OD450 | 0.08 OD450 | 0.05 OD450 | 0.04 OD450 | 0.04 OD450 | 0.05 OD450 | 0.04 OD450 | 0.04 OD450 | 0.04 OD450 | 0.05 OD450 | S009-F8-15.19 (antibody, human IgG1, kappa, V domains shown) VH: EFQLQQSGPELVKPGASVKISCKASGYSFTDYNMNWVKQSNGKSLEWIGIINPYYGTTSNNQNFKGKATLTVDQSSSTAYMQLNSLTSDDSAVYYCARWLRRDAMDYWGQGTSVTVSS VL: DIVMTPSHKFMSTSVGDRVSIACKASQDVGSSVAWYQQKPGQSPKLLIYWTSTRHTGVPDRFTGSGSGTDFTLTISNVQSEDLADYFCQQYSSYPWTFGGGTKLEIKR | OD450 [21]: 0.04 OD450; OD450 [22]: 0.05 OD450; OD450 [23]: 0.05 OD450; OD450 [24]: 0.05 OD450
1.8 OD450 | 0.04 OD450 | 0.04 OD450 | 2.1 OD450 | 0.05 OD450 | 0.05 OD450 | 1.26 OD450 | 2.35 OD450 | 0.05 OD450 | 0.06 OD450 | 0.04 OD450 | 0.06 OD450 | 0.28 OD450 | 0.04 OD450 | 0.04 OD450 | 0.08 OD450 | 0.05 OD450 | 0.05 OD450 | 0.05 OD450 | 0.05 OD450 | S009-F8-13.8 (antibody, human IgG1, kappa, V domains shown) VH: EFQLQQSGPELVKPGASVKISCKASGYSFTDYNMNWVKQTNGKSLEWIGIINPNYGTSSYNQKFKGKATLTVDQSSSTAYMQLNSLTSEDSAVYYCARVGRDNSGFDYWGQGTTLTVSS VL: QIVLTQSPAIMSASPGEKVTMTCSASSSVSYMYWYQQKPGSSPRLLIYDTSNLASGVPVRFSGSGSGTSYSLTISRMEAEDAATYYCQQWSSYPPTFGSGTELEIKR | OD450 [21]: 0.04 OD450; OD450 [22]: 0.05 OD450; OD450 [23]: 0.05 OD450; OD450 [24]: 0.05 OD450

Continued, binder first:

Binder | OD450 [1] | OD450 [2] | OD450 [3] | OD450 [4] | OD450 [5] | OD450 [6] | OD450 [7] | OD450 [8] | OD450 [9] | OD450 [10] | OD450 [11] | OD450 [12] | OD450 [13] | OD450 [14] | OD450 [15] | OD450 [16] | OD450 [17] | OD450 [18] | OD450 [19] | OD450 [20] | also measured
S009-F8-18.9 (antibody, human IgG1, kappa, V domains shown) VH: EFQLQQSGPELVKPGASVKISCKASGYSFTDYNMNWVKQSNGKSLEWIGIINPNYGTTSYNQKFKGRATLTVDQSSSTAYVQLNSLTSEDSAVYYCARGGYDNEAMDYWGQGTSVTVSS VL: QIVLTQSPAIMSASPGEKVTMTCSASSSVSYMHWYQQKSGTSPKRWIYDTSKLASGVPARFSGSGSGTSYSLTISSMEAEDAATYYCQQWSSNPPTFGAGTKLELKR | 1.96 OD450 | 0.05 OD450 | 0.05 OD450 | 2.12 OD450 | 0.06 OD450 | 0.06 OD450 | 1.73 OD450 | 2.15 OD450 | 0.04 OD450 | 0.08 OD450 | 0.04 OD450 | 0.1 OD450 | 0.62 OD450 | 0.04 OD450 | 0.04 OD450 | 0.15 OD450 | 0.04 OD450 | 0.05 OD450 | 0.06 OD450 | 0.04 OD450 | OD450 [21]: 0.04 OD450; OD450 [22]: 0.05 OD450; OD450 [23]: 0.05 OD450; OD450 [24]: 0.05 OD450
S009-F8-19.21 (antibody, human IgG1, kappa, V domains shown) VH: EFQLQQSGPELVKPGASVKISCKTSGYSFTDYNMNWVKQSNGKSLEWIGVINPNYGTTGYNQKFKGKATLTVDQSSSTAYMQLNSLTSEDSAVYYCARGGYDGEAMDYWGHGTSVTVSS VL: QIVLTQSPAIMSASPGEKVTMTCSASSSVNYMHWYQQKSGTSPKRWIYDTSKLASGVPARFSGSGSGTSYSLTISSMEAEDAATYYCQQWSSYPPTFGGGTKLEIKR | 1.82 OD450 | 0.05 OD450 | 0.04 OD450 | 2.11 OD450 | 0.06 OD450 | 0.05 OD450 | 1.46 OD450 | 2.13 OD450 | 0.04 OD450 | 0.06 OD450 | 0.04 OD450 | 0.09 OD450 | 0.39 OD450 | 0.04 OD450 | 0.04 OD450 | 0.1 OD450 | 0.04 OD450 | 0.04 OD450 | 0.06 OD450 | 0.05 OD450 | OD450 [21]: 0.04 OD450; OD450 [22]: 0.05 OD450; OD450 [23]: 0.05 OD450; OD450 [24]: 0.05 OD450
S009-F8-12.13 (antibody, human IgG1, kappa, V domains shown) VH: QVQLQQPGAELVKPGASVKLSCKASGYTFTSYWMHWVKQRPGQGLEWIGMIHPNSGSTNYNEKFKSKATLTVDKSSSTAYMQLSSLTSEDSAVYYCARRTPIITLVGHWYFDVWGTGTTVTVSS VL: DIVMTQSHKFMSTSVGDRVSITCKASQDVGTAVAWYQQKPGQSPKLLIYWASTRHTGVPDRFTGSGSGTDFTLTISNVQSEDLADYFCQQYSSYPLTFGAGTKLELKR | 2.06 OD450 | 0.05 OD450 | 0.06 OD450 | 2.16 OD450 | 0.07 OD450 | 0.1 OD450 | 1.97 OD450 | 2.17 OD450 | 0.05 OD450 | 0.15 OD450 | 0.05 OD450 | 0.2 OD450 | 1.18 OD450 | 0.05 OD450 | 0.04 OD450 | 0.52 OD450 | 0.04 OD450 | 0.05 OD450 | 0.32 OD450 | 0.04 OD450 | OD450 [21]: 0.04 OD450; OD450 [22]: 0.05 OD450; OD450 [23]: 0.05 OD450; OD450 [24]: 0.05 OD450
S009-F8-22.23 (antibody, human IgG1, kappa, V domains shown) VH: QVQLKQSGPGLVQPSQSLSITCTVSGFSLFSYGVHWVRQSPGKGLEWLGVIWSGGSTDYNAAFISRLSISKDNSKSQVFFKMNSLQADDTAMYYCARNGGSMITTLYYAMDYWGQGTSVTVSS VL: DVVMTQTPLSLPVSLGDQASISCRSSQSLVHSYGNTYLHWYLQKPGQSPKLLIYKVSNRFSGVPDRFSGSGSGTDFTLKISRVEAEDLGVYFCSQSTHIPFTFGGGTKLEIKR | 2.34 OD450 | 0.08 OD450 | 0.04 OD450 | 2.51 OD450 | 0.11 OD450 | 0.05 OD450 | 1.72 OD450 | 2.55 OD450 | 0.05 OD450 | 0.17 OD450 | 0.04 OD450 | 0.1 OD450 | 0.78 OD450 | 0.04 OD450 | 0.04 OD450 | 0.36 OD450 | 0.05 OD450 | 0.04 OD450 | 0.26 OD450 | 0.04 OD450 | OD450 [21]: 0.04 OD450; OD450 [22]: 0.04 OD450; OD450 [23]: 0.04 OD450; OD450 [24]: 0.04 OD450
